In one experiment the target is T1, stk3_human STK3 (UniProt Q13188).
T1 sequence: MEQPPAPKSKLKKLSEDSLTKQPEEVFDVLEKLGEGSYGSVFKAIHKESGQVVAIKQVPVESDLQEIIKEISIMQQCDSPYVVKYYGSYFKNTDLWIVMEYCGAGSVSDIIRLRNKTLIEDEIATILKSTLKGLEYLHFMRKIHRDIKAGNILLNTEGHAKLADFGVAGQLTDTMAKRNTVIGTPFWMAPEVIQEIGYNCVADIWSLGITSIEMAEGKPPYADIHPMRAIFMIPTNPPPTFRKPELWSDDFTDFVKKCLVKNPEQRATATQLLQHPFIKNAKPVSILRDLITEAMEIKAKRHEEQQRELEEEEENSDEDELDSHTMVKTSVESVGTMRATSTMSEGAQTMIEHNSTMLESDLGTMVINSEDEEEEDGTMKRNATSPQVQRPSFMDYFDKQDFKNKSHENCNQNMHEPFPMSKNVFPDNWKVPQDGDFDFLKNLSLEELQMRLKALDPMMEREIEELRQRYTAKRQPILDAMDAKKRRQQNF

The target of the next experiment is T2, rasf3_human RASSF3 (UniProt Q86WH2).
T2 sequence: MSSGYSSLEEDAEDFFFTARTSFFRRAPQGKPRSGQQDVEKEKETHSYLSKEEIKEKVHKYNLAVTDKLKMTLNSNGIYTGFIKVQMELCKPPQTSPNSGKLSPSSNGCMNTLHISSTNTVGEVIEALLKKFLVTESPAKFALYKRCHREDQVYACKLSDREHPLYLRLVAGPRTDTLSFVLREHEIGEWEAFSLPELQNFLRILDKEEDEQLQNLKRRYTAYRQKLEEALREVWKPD

For a further experiment, the target named is T3, tbc15_human TBC1D15 (UniProt Q8TC07).
T3 sequence: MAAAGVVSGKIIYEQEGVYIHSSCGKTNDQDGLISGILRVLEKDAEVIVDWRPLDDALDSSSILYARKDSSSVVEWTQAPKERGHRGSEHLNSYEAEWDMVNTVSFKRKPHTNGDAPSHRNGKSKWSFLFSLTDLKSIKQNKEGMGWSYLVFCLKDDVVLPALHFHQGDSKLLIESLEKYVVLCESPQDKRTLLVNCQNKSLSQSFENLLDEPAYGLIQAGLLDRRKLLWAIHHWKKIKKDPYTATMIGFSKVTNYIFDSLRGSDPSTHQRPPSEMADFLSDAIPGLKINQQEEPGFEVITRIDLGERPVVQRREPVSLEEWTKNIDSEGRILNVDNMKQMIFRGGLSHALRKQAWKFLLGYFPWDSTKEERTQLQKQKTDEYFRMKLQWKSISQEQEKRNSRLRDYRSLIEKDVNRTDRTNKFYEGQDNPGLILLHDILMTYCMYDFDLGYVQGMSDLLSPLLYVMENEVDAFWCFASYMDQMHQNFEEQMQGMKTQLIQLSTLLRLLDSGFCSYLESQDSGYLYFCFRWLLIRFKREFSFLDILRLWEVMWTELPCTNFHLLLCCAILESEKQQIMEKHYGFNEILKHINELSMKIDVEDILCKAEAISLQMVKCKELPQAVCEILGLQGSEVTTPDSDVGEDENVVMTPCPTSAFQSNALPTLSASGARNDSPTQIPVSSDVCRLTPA

The target in a further experiment is T4, tcpr2_human TECPR2 (UniProt O15040).
T4 sequence: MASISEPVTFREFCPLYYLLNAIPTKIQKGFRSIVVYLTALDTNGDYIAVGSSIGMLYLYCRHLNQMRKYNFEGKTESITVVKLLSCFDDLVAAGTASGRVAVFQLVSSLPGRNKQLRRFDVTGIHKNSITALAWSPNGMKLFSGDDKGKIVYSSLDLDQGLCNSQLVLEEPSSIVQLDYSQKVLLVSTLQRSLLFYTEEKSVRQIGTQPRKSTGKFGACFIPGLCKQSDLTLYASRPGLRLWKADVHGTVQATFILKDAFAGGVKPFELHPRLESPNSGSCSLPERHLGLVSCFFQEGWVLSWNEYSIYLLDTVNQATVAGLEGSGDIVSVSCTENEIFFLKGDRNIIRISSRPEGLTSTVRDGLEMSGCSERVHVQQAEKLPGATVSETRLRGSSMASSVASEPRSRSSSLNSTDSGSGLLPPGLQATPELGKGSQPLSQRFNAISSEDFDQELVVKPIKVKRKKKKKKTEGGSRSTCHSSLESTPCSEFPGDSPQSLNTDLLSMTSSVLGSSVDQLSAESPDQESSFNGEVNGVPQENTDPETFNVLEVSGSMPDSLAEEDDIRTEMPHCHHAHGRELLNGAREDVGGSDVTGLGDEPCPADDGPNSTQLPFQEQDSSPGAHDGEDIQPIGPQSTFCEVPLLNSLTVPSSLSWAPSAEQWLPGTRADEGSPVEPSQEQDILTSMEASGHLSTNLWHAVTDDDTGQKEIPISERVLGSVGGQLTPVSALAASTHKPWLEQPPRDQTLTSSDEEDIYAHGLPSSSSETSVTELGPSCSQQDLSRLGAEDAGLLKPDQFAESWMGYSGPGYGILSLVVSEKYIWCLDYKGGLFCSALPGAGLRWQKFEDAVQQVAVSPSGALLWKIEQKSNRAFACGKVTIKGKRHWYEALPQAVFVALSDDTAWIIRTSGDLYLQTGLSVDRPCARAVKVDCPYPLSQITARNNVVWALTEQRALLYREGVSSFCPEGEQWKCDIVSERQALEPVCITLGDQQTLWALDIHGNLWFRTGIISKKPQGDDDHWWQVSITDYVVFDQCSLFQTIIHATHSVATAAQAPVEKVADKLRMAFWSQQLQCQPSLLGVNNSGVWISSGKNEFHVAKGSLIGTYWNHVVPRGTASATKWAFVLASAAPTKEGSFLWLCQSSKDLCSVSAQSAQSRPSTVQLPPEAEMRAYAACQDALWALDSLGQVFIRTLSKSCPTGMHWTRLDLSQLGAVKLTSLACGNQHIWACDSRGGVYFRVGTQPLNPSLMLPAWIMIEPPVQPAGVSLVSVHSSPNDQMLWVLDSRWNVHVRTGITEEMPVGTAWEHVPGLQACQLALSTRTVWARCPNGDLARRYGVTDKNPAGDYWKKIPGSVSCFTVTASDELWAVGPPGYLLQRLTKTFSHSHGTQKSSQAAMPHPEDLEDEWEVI

Another experiment addresses echa_human HADHA (UniProt P40939).

Chain of echa_human HADHA (P40939 whole entry): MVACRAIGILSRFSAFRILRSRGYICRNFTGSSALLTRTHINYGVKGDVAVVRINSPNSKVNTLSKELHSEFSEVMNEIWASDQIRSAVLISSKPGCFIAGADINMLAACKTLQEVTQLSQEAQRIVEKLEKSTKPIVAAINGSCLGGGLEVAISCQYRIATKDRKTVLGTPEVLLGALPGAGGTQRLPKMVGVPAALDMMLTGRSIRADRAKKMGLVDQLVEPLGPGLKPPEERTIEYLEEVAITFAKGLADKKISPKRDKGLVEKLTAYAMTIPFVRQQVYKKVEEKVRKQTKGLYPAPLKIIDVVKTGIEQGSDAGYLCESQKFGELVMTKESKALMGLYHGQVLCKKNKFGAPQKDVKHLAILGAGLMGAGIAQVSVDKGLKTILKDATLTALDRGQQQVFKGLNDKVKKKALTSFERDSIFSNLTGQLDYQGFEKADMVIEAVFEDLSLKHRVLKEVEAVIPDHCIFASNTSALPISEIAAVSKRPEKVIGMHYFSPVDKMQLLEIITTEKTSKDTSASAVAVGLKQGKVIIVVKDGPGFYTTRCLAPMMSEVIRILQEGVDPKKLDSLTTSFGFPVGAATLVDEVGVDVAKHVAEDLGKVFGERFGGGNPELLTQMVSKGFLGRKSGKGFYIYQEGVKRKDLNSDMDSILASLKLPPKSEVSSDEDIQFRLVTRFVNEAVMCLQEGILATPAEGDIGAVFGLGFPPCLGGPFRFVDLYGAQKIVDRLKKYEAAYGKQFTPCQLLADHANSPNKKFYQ

Take “Microtubule-associated protein 1 light chain 3 beta (Homo sapiens) (from UniProt Q9GZQ8) F52A;L53A”: the “effect of a mutation on the interaction” value is reported as “increasing interaction” with stk3_human STK3; “increasing interaction” in the experiment with rasf3_human RASSF3; “decreasing interaction” with tbc15_human TBC1D15; “decreasing interaction” with tcpr2_human TECPR2; “increasing interaction” with echa_human HADHA.
As for “Microtubule-associated protein 1 light chain 3 beta (Homo sapiens) (from UniProt Q9GZQ8) R69A”, the “effect of a mutation on the interaction” value was “decreasing interaction” with stk3_human STK3; “decreasing interaction” in the experiment with rasf3_human RASSF3; “decreasing interaction” with tbc15_human TBC1D15; “disrupting interaction” in the experiment with tcpr2_human TECPR2; “disrupting interaction” with echa_human HADHA.

The record behind these values is IntAct's records for PubMed 20562859.
